Reference: doi:10.1101/2020.12.04.412312

Molecular target: Leptospira interrogans triosephosphate isomerase (Leptospira interrogans)
Assay: SEC

## Leptospira interrogans triosephosphate isomerase (enzyme)
  stoichiometry N: 2
